Laboratory results taken from the supplement of paper PMC5998384.

How the values were obtained:
HeLa Kyoto [1] = experiment: solubility in G1/S (NP-40 vs SDS abundance) (log2 ratio); higher = more soluble; conditions: cell cycle stage: G1/S
HeLa Kyoto [2] = experiment: melting temperature (median over replicates), in situ; higher = more thermally stable
HeLa Kyoto [3] = experiment: solubility change mitosis vs G1/S (difference of NP-40 vs SDS log2 ratios) (log2 ratio difference); higher = more soluble in mitosis
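Throughout, for melting temperature (median over replicates), in situ: HeLa Kyoto cells synchronized by double thymidine or nocodazole block, proteins quantified by TMT10plex mass spectrometry, three independent biological replicates.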
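Throughout, for solubility change mitosis vs G1/S (difference of NP-40 vs SDS log2 ratios): synchronized HeLa Kyoto cells (double thymidine block for G1/S, nocodazole release for mitosis), protein amounts in NP-40 versus SDS lysates quantified by mass spectrometry, three biological replicates.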
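Throughout, for solubility in G1/S (NP-40 vs SDS abundance): HeLa Kyoto cells arrested at G1/S by double thymidine block, proteins quantified by TMT10plex mass spectrometry in mild NP-40 versus SDS extracts, three biological replicates.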

Row | Sequence | solubility in G1/S (log2) (HeLa Kyoto [1]) | melting temperature (HeLa Kyoto [2]; cell cycle stage: G1/S) | melting temperature (HeLa Kyoto [2]; cell cycle stage: mitosis) | solubility change mitosis (log2) (HeLa Kyoto [3])
1 | MEDPFEEADQPTTEPGMVLDSVEAGDTTPPTKRKSKFSGFGKIFKPWKWRKKKSSDKFKETSEVLERKISMRKPREELVKRGVLLEDPEQGGEDPGKPSDAMLKNGHTTPIGNARSSSPVQVEEEPVRLASLRKAIPEEDLKKRLGSTGSQPNSEAESVPENVPKPPLLPPKRPLSSSHEASEGQAKDATSSGGTARFIISTSITTAPAATTAATSLAKTVNLSVTPSPAPRTLPAAPASTNTTATPSLTHMVPAKQPPIPPPKPAHRNSNPVIAELSQAINSGTLLSKPSPPLPPKRGIPSTSVPTLESAAAITTKTPSDEREKSTCSMGSELLPMISPRSPSPPLPTHIPPEPPRTPPFPAKTFQVVPEIEFPPSLDLHQEIPQQEDQKKEVPKRILDQNFGEPHIPSRLPPLPLHIRIQQALTSPLPMTPILEGSHRAHSLLFENSDSFSEDSSTLGRTRSLPITIEMLKVPDDEEEEEQTCPSTFSEEMTPTSVIPKLPQCLREEEEKESDSDSEGPIQYRDEEDEDESYQSALANKVKRKDTLAMKLNHRPSEPELNLNSWPCKSKEEWNEIRHQIGNTLIRRLSQRPTPEELEQRNILQPKNEADRQAEKREIKRRLTRKLSQRPTVAELLARKILRFNEYVEVTDAQDYDRRADKPWTKLTPADKAAIRKELNEFKSSEMEVHEESKHFTRYHRP [PHACTR4] | 0.401 | 54.3 °C | 54.9 °C | 0.0651
2 | MEESEPERKRARTDEVPAGGSRSEAEDEDDEDYVPYVPLRQRRQLLLQKLLQRRRKGAAEEEQQDSGSEPRGDEDDIPLGPQSNVSLLDQHQHLKEKAEARKESAKEKQLKEEEKILESVAEGRALMSVKEMAKGITYDDPIKTSWTPPRYVLSMSEERHERVRKKYHILVEGDGIPPPIKSFKEMKFPAAILRGLKKKGIHHPTPIQIQGIPTILSGRDMIGIAFTGSGKTLVFTLPVIMFCLEQEKRLPFSKREGPYGLIICPSRELARQTHGILEYYCRLLQEDSSPLLRCALCIGGMSVKEQMETIRHGVHMMVATPGRLMDLLQKKMVSLDICRYLALDEADRMIDMGFEGDIRTIFSYFKGQRQTLLFSATMPKKIQNFAKSALVKPVTINVGRAGAASLDVIQEVEYVKEEAKMVYLLECLQKTPPPVLIFAEKKADVDAIHEYLLLKGVEAVAIHGGKDQEERTKAIEAFREGKKDVLVATDVASKGLDFPAIQHVINYDMPEEIENYVHRIGRTGRSGNTGIATTFINKACDESVLMDLKALLLEAKQKVPPVLQVLHCGDESMLDIGGERGCAFCGGLGHRITDCPKLEAMQTKQVSNIGRKDYLAHSSMDF [DDX41] | -0.425 | 47.5 °C | 49 °C | 0.325
3 | MEGGFGSDFGGSGSGKLDPGLIMEQVKVQIAVANAQELLQRMTDKCFRKCIGKPGGSLDNSEQKCIAMCMDRYMDAWNTVSRAYNSRLQRERANM [TIMM13] | -0.594 | 53.8 °C | – | 0.337
4 | MEKIEEQFANLHIVKCSLGTKEPTYLLGIDTSKTVQAGKENLVAVLCSNGSIRIYDKERLNVLREFSGYPGLLNGVRFANSCDSVYSACTDGTVKCWDARVAREKPVQLFKGYPSNIFISFDINCNDHIICAGTEKVDDDALLVFWDARMNSQNLSTTKDSLGAYSETHSDDVTQVRFHPSNPNMVVSGSSDGLVNVFDINIDNEEDALVTTCNSISSVSCIGWSGKGYKQIYCMTHDEGFYWWDLNHLDTDEPVTRLNIQDVREVVNMKEDALDYLIGGLYHEKTDTLHVIGGTNKGRIHLMNCSMSGLTHVTSLQGGHAATVRSFCWNVQDDSLLTGGEDAQLLLWKPGAIEKTFTKKESMKIASSVHQRVRVHSNDSYKRRKKQ [WDR89] | -1.26 | 57.4 °C | 55.9 °C | 0.369
5 | MEPAVSLAVCALLFLLWVRLKGLEFVLIHQRWVFVCLFLLPLSLIFDIYYYVRAWVVFKLSSAPRLHEQRVRDIQKQVREWKEQGSKTFMCTGRPGWLTVSLRVGKYKKTHKNIMINLMDILEVDTKKQIVRVEPLVTMGQVTALLTSIGWTLPVLPELDDLTVGGLIMGTGIESSSHKYGLFQHICTAYELVLADGSFVRCTPSENSDLFYAVPWSCGTLGFLVAAEIRIIPAKKYVKLRFEPVRGLEAICAKFTHESQRQENHFVEGLLYSLDEAVIMTGVMTDEAEPSKLNSIGNYYKPWFFKHVENYLKTNREGLEYIPLRHYYHRHTRSIFWELQDIIPFGNNPIFRYLFGWMVPPKISLLKLTQGETLRKLYEQHHVVQDMLVPMKCLQQALHTFQNDIHVYPIWLCPFILPSQPGLVHPKGNEAELYIDIGAYGEPRVKHFEARSCMRQLEKFVRSVHGFQMLYADCYMNREEFWEMFDGSLYHKLREKLGCQDAFPEVYDKICKAARH [DHCR24] | -0.264 | 51.3 °C | 52.3 °C | -0.166
6 | MEQPWPPPGPWSLPRAEGEAEEESDFDVFPSSPRCPQLPGGGAQMYSHGIELACQKQKEFVKSSVACKWNLAEAQQKLGSLALHNSESLDQEHAKAQTAVSELRQREEEWRQKEEALVQREKMCLWSTDAISKDVFNKSFINQDKRKDTEDEDKSESFMQKYEQKIRHFGMLSRWDDSQRFLSDHPYLVCEETAKYLILWCFHLEAEKKGALMEQIAHQAVVMQFIMEMAKNCNVDPRGCFRLFFQKAKAEEEGYFEAFKNELEAFKSRVRLYSQSQSFQPMTVQNHVPHSGVGSIGLLESLPQNPDYLQYSISTALCSLNSVVHKEDDEPKMMDTV [CDC37L1] | 0.655 | 46.3 °C | 50.9 °C | -0.0113
7 | METPGASASSLLLPAASRPPRKREAGEAGAATSKQRVLDEEEYIEGLQTVIQRDFFPDVEKLQAQKEYLEAEENGDLERMRQIAIKFGSALGKMSREPPPPYVTPATFETPEVHAGTGVVGNKPRPRGRGLEDGEAGEEEEKEPLPSLDVFLSRYTSEDNASFQEIMEVAKERSRARHAWLYQAEEEFEKRQKDNLELPSAEHQAIESSQASVETWKYKAKNSLMYYPEGVPDEEQLFKKPRQVVHKNTRFLRDPFSQALSRCQLQQAAALNAQHKQGKVGPDGKELIPQESPRVGGFGFVATPSPAPGVNESPMMTWGEVENTPLRVEGSETPYVDRTPGPAFKILEPGRRERLGLKMANEAAAKNRAKKQEALRRVTENLASLTPKGLSPAMSPALQRLVSRTASKYTDRALRASYTPSPARSTHLKTPASGLQTPTSTPAPGSATRTPLTQDPASITDNLLQLPARRKASDFF [DGCR14] | 0.334 | 50 °C | 52.4 °C | 0.458
